{
  "source": "the RNAGym collection of RNA variant scans (doi:10.7554/elife.90254)",
  "parents": {"B1": {"name": "LINE1-full (parent)", "chain": "UACGUAGGUGGUUUUCCCCUGAUAGUGCUAAGGGGGCCUGGAAGUUUGGACUGGGCAGAGCUCAACACAGCGUGGCAAAGUGGCUGUGGCUAGACUGCCUCUCUGGAUUCCUCGUCACUCAGCAGGGCAUCUCUGAGAGAAAUGCC"}},
  "data": [
    {"variants_of": "B1", "assay": "self-cleavage, relative activity (ratio to wild type); higher = more cleavage; in vitro, sequencing; the parent is a self-cleaving ribozyme", "values": [
      {"variant": "UACGAAGGUGGUUUUCCCCUGAUAGUGCUAAGGGGGCCUGGAAGUUUGGACUGGGCAGAGCUCAGCACAGCGUGGCAAAGUGGCUGUGGCUAGACUGCCUCUCUGGAUUCCUCGUCACUCAGCAGGGCAUCUCUGAGAGAAAUGCC", "note": "[U5A A65G]", "self-cleavage": 0.08},
      {"variant": "UACGUAGGUGGUUUUCCCCUGAUAGUGCUAAGGGGGCCUGGAAGUUUGGACUGGGCAGAGCUCAACACGGCAUGGCAAAGUGGCUGUGGCUAGACUGCCUCUCUGGAUUCCUCGUCACUCAGCAGGGCAUCUCUGAGAGAAAUGCC", "note": "[A69G G72A]", "self-cleavage": 0.54},
      {"variant": "UACGUAGGUGGUUUUCCCCUAAUAGUGCUAAGGGGGCCUGGAAGUUUGGACUGGGCAGAGCUCAACACAGCGUGGCAAAGUGGCUGUGGCUAGACUGCCUCUCUGGAUUCCUCGUCACUCAGCAGGGCAUCUCUGAGAGAGAUGCC", "note": "[G21A A141G]", "self-cleavage": 1.16},
      {"variant": "UACGUAGGUGGUUUUCCCCUGAUAGUGCUAAGGGGGCCCGGAAGUUCGGACUGGGCAGAGCUCAACACAGCGUGGCAAAGUGGCUGUGGCUAGACUGCCUCUCUGGAUUCCUCGUCACUCAGCAGGGCAUCUCUGAGAGAAAUGCC", "note": "[U39C U47C]", "self-cleavage": 1.91},
      {"variant": "UACGUAGGUGGUUUUCCCCUGAUAGUGCUUAGGGGGCCUGGAAGUUUGGACUGGGCAGAGCUCAACACAGCGUGGCAAAGUGGCUGUGGCUAGACUGCCUCUCUGGAUUCCUCGUCACUCAGCAGGGCAUCUCUGAGAGAAAUACC", "note": "[A30U G144A]", "self-cleavage": 0.75},
      {"variant": "UACGUAGGUGGUUUUCCCCUGAUAGUGCUAAGGGGGCCUGGAAGUUUGGACUGGGCAGAGCUCAACACAGCGUGGCAAAGUGGCUGUGGCUAGACUGCCUCUCUGGAUUCUUCGUCACUCAGCAGGGCAUCUCUGAAAGAAAUGCC", "note": "[C111U G137A]", "self-cleavage": 1.73},
      {"variant": "UACGUAGGUGGUUUUCCCCUGAUAGUGCUAAGGGGGCCUGGAAGAUUGGACUGGGCAGAGCUCAACACAGCGUGGCAAGGUGGCUGUGGCUAGACUGCCUCUCUGGAUUCCUCGUCACUCAGCAGGGCAUCUCUGAGAGAAAUGCC", "note": "[U45A A79G]", "self-cleavage": 1.39},
      {"variant": "UACGUAGGUGGUUUACCCCUGAUAGUGCUAAGGGGGCCUGGAAGUUUCGACUGGGCAGAGCUCAACACAGCGUGGCAAAGUGGCUGUGGCUAGACUGCCUCUCUGGAUUCCUCGUCACUCAGCAGGGCAUCUCUGAGAGAAAUGCC", "note": "[U15A G48C]", "self-cleavage": 0.71},
      {"variant": "UACGUAGGUGGCUUUCCCCUGAUAGUGCUAAGGGGGCCUGGAAGUUUGGACUGGGCAGAGCUCAACGCAGCGUGGCAAAGUGGCUGUGGCUAGACUGCCUCUCUGGAUUCCUCGUCACUCAGCAGGGCAUCUCUGAGAGAAAUGCC", "note": "[U12C A67G]", "self-cleavage": 0.77},
      {"variant": "UACGUAGGUGGUUUUCCCCUGAUAGUGCUAAGGGGGCCUGUAAGUUUGGACUGGGCAGAGCUCAACACAGCGUGGCAAAGUGGCUGUGGCUAGACUGCCGCUCUGGAUUCCUCGUCACUCAGCAGGGCAUCUCUGAGAGAAAUGCC", "note": "[G41U U100G]", "self-cleavage": 0.78},
      {"variant": "UACGUAGGUGGUUUUCCCCUGAUAGUGCUAAGGGGGCCUGGAAGUCUGGACUGGGCAGAGCUCAACACAGCGUGGCAAAGUGGCUGUGGCAAGACUGCCUCUCUGGAUUCCUCGUCACUCAGCAGGGCAUCUCUGAGAGAAAUGCC", "note": "[U46C U91A]", "self-cleavage": 0.53},
      {"variant": "UACGUAGGUGGUUCUCCCCUGAUAGUGCUAAGGGGGCCUGGAAGUUUGGACUGGGCAGAGCUCAACACAGCGUGGCAAAGUGGCUGAGGCUAGACUGCCUCUCUGGAUUCCUCGUCACUCAGCAGGGCAUCUCUGAGAGAAAUGCC", "note": "[U14C U87A]", "self-cleavage": 0.15},
      {"variant": "UACGUAGGUGGUUUUCCCCUGAUAGUGCUAAGGGGGCCUGGAAGUUUGGACUGGGCAGAGCUCAACACAGCAUGGCAAAGUGGCUGUGGCUUGACUGCCUCUCUGGAUUCCUCGUCACUCAGCAGGGCAUCUCUGAGAGAAAUGCC", "note": "[G72A A92U]", "self-cleavage": 0.69},
      {"variant": "UACGUAGGUGGUUUUCCCCUGAUGGUGCUAAGGGGGCCUGGAAGUUUGGACUGGGCAGAGCUCAACACAGCGUGGCAAAGUGGCUGUGGCUAGACUGCCUCUCUGGAUUCCUCGUCACUCUGCAGGGCAUCUCUGAGAGAAAUGCC", "note": "[A24G A121U]", "self-cleavage": 2.93},
      {"variant": "UACGUAGGUGGUUUUCCCCUGAUAGUGCUAUGGGGGCCUGGAAGUUUGGACUGGGCAGAGCUCAACACAGCGUGGCAAAGUGGCUGUGGCUAGACUGCCUCUCUGGAUUCCUCGUCACUCAGCAGGGCAUCUCUGUGAGAAAUGCC", "note": "[A31U A136U]", "self-cleavage": 0.55},
      {"variant": "UACGUAGGUGGUUUUCCCCUGAUAGUGCUAAGGGGGCCUGGAGGUUUGGACUGGGCAGAGCUCAACACAGCGUGGCAAAGUGGCUGUGGCUAGACUGCCUCUCUGGAUUCCUCGUCACUUAGCAGGGCAUCUCUGAGAGAAAUGCC", "note": "[A43G C120U]", "self-cleavage": 1.52},
      {"variant": "UACGUAGGUGGUUUUCCCCUGAUAGUGCUAAGGGGGCCUGGAAGUUUGGACUGGGCAGAGCUCAACACAGCGUGGCAAAGUGGCUGUGGCUAGACUGCCUCUCUGGAUUUCUCGUCACCCAGCAGGGCAUCUCUGAGAGAAAUGCC", "note": "[C110U U119C]", "self-cleavage": 1.39},
      {"variant": "UACGUAGGUGGUUUUCCCCUGAUAGUGCUAAGGGGGCCUGGAAGUUUGGACUGGGCAGAGAUCAACACAGCGUGGCAAAGUGGCUGUGGCUAGACUGCCUCUCUGGGUUCCUCGUCACUCAGCAGGGCAUCUCUGAGAGAAAUGCC", "note": "[C61A A107G]", "self-cleavage": 0},
      {"variant": "UACGUAGGUGGUUUUCCCCUGAUAGUGCUAAGGGGGCCUGGAAGUUUGGACAGGGCAGAGCUCAACACAGCGUGGCAAAGUGGCUGUGGCUAGACUGCCUCUCUGGAUUCCUCGUCUCUCAGCAGGGCAUCUCUGAGAGAAAUGCC", "note": "[U52A A117U]", "self-cleavage": 1.35},
      {"variant": "UACCUAGGUGGUUUUCCCCUGAUAGUGCUAAGGGGGCCUGGAAGUUUGGACUGGGCAGAGCUCAACACAGCGUGGCAAAGUGGCUGUGGCUAGACUGCCUCUCUGGAUUCCUCGUCACUCAGCAGGGCAUCCCUGAGAGAAAUGCC", "note": "[G4C U132C]", "self-cleavage": 0.97}
    ]}
  ]
}
